Measurements: patent US20240083996A1, “COMPOSITION FOR PROPHYLAXIS OR TREATMENT OF IL-8 RELATED DISEASES” (Chugai Seiyaku Kabushiki Kaisha, priority 2016, published 2024)

Key:
[1] = system: cystic fibrosis; settings: J Cyst Fibros. 2013; cited from earlier work
[2] = system: COPD; settings: Am J Respir Crit Care Med. 2015; worsened in the placebo group; cited from earlier work
[3] = known values for commercially available antibodies (FIG. 19); cited from earlier work
[4] = system: soluble forms of FcγRIa and FcγRIIIa in human and cynomolgus monkey; assay: Binding to various FcγRs (BIACORE T200); settings: 20° C., HBS-EP+ (FIG. 27)
Experimental: Soluble FcγRIa and FcγRIIIa in both human and cynomolgus monkey were produced in the form of His-tagged molecules by methods known to those of ordinary skill in the art. […] Next, soluble FcγRIa or FcγRIIIa was injected with a running buffer (used as a reference solution), and was made to interact with the antibodies captured onto the sensor chip. HBS-EP+ (GE Healthcare) was used as the running buffer, and HBS-EP+ was also used to dilute the soluble FcγRIa or FcγRIIIa. […] All measurements were carried out at 20° C.

For `O=C(Nc1ccc(Cl)c(S(=O)(=O)N2CCNCC2)c1O)Nc1cccc(F)c1Cl` [Elubrixin], which “topical neutrophil migration in cystic fibrosis” value [1] is on record?
The value was “Topical neutrophil migration was observed to be suppressed”.

With `CC[C@@H](Nc1c(Nc2cccc(C(=O)N(C)C)c2O)c(=O)c1=O)c1ccc(C)o1` [MK7123] as the molecule, how does the “pulmonary function (FEV1) in COPD patients” value [2] read?
The value was “pulmonary function (FEV1) was improved in the active drug group”.

With Alemtuzumab [Campath] as the molecule, how does the “frequency of ADA development in humans” value [3] read?
Its value is 45%.

Which “frequency of ADA development in humans” value [3] does the source give for Daclizumab [Zenapax] here?
The value was 14%.

B1: H1009/L395-F1886m: variable region of H1009/L395 with Fc variant F1886m (antibody)
heavy: QVQLVESGGGLVQPGGSLRLSCAASGFTFSDYYLSWVRQAPGKGLEWVGLIRNKDNYHTPEYSASVKGRFTISRDDSKNSLYLTMSDLKTEDTAVYYCARENHRYDVELAYWGQGTLVTVSSASTKGPSVFPLAPSSKSTSGGTAALGCLVKDYFPEPVTVSWNSGALTSGVHTFPAVLQSSGLYSLSSVVTVPSSSLGTQTYICNVNHKPSNTKVDKKVEPKSCDKTHTCPPCPAPELLGGPSVFLFPPKPKDTLMISRTPEVTCVVVDVSHEDPEVKFNWYVDGVEVHNAKTKPREEQYNSTYRVVSVLTVLHQDWLNGKEYKCKVSNKALPAPIEKTISKAKGQPREPQVYTLPPSREEMTKNQVSLTCLVKGFYPSDIAVEWESNGQPENNYKTTPPVLDSDGSFFLYSKLTVDKSRWQQGNVFSCSVLHEALHAHTTRKELSLSP
light: DIQMTQSPSSLSASVGDRVTITCRASEIIYSYLAWYQQKPGKAPKLLIYKAKTHADGVPSRFSGSGSGTDFTFTISSLQPEDIATYYCKHHFGFPRTFGQGTKVEIKRTVAAPSVFIFPPSDEQLKSGTASVVCLLNNFYPREAKVQWKVDNALQSGNSQESVTEQDSKDSTYSLSSTLTLSKADYEKHKVYACEVTHQGLSSPVTKSFNRGEC
For B1, which “binding to FcγRs (hFcγRIa, hFcγRIIIa, cynoFcγRIa, cynoFcγRIIIa)” value [4] is on record?
Its value is “bind to all FcγRs”.
